assay: yeast display, Sf9 membrane polyspecificity reagent, FACS + sequencing; frameworks hold sequencing errors
Method in brief: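 Polyreactivity labels are assigned by the sorting gate from which each nanobody was recovered. The gates were low and high (top ~1%), set on anti-HA fluorescence for expression and streptavidin fluorescence for reagent binding. Before sorting, galactose-induced (36–48 hours) yeast display cells were stained for 1 hour at 4 °C with 10% biotinylated, detergent-solubilized Sf9 membrane reagent.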

| Sequence | polyreactivity (PSR sort gate) |
| --- | --- |
| QVQLVESGGGLVQAGGSLRLSCAASGSIFPGYAMGWYRQAPGKERELVAGITWSDARTYYADSVKGLFTISRDNAKNTVYLQMNSLKPEDTAVYYCAADYYYYERDYWGQGTQVTVSS | low polyreactivity |
| QVQLVESGGGLVQAGGSLRLSCAASGSIFPIYAMGWSRQPPGKESELVAPISRGGSTNYADSVKGRFTISRDNAKNTVYLQMNSLKPEDTAVYYCAAQSRVFSTWGSTGEYYYWGQGTQVTVSS | low polyreactivity |
| QVQLVESGGGLVQAGGSLRLSCAASGSIFPKYAMGWYRQAPGKERELVAGISRSGGITHYADSVKGRFTISRDNAKNTVYLQMNSLKPEDTAVYYCAALWARALSYYYWGQGTQVTVSS | high polyreactivity |
| QVQLVESGGGLVQAGGSLRLSCAASGSIFPQNAMAWYRQAPGKERELVASISSGGRTNYADSVKGRFTISRDNAKNTVYLQMNSLKPEDTAVYYCNARYRGYYGPKTHGVTYYYWGQGTQVTVSS | low polyreactivity |
| QVQLVESGGGLVQAGGSLRLSCAASGSIFPRYAMGWYRQAPGKERELVAGITSGGITYYADSVKGRFTISRDNAKNTVYLQLNSLKPEDTAVYYCAAVYYLVPGNYWGQGTQVTVSS | high polyreactivity |
| QVQLVESGGGLVQAGGSLRLSCAASGSIFPSYAIGWYRQAPGKERELVATIGRGGTTNYADSVKGRFTISRDNAKNTVYLQMNSLKPEDTSVYYCNAERIWRYKYGYDYWGQGTQVTVSS | high polyreactivity |
| QVQLVESGGGLVQAGGSLRLSCAASGSIFPSYAMGWFRQAPRKERELVAAISRSAGSTYYADSVKGRFTISRDNAKNTVYLQMNSLKPEDTAVYYCAADGYSSRYRFDYWGQGTQVTVSS | low polyreactivity |
| QVQLVESGGGLVQAGGSLRLSCAASGSIFPSYAMGWYRPAPGTERELVAAISVSGGRTSYADSVKGRFTISRDNAKNTVYLQMNSLKPEDTAVYYCAVRSWSGYGLYNYWAQGTQVTVSS | high polyreactivity |
| QVQLVESGGGLVQAGGSLRLSCAASGSIFPSYAMGWYRQAPGKERELVAAISRSAGSTYYADSVKGRFTISRDNAKNTVYLQMNSLKPEDTAVYYCAAEGYSSRYRYDYWGQGTQVTVSS | low polyreactivity |
| QVQLVESGGGLVQAGGSLRLSCAASGSIFPSYARGWYRQAPGKERELVAAINWDGGSTFYADSVKGRFTISRDNAKNTVSLQMNSLKPEDTAVYYCAAPDNYGGVGGITFWRMDYWGQGTQVTVSS | low polyreactivity |
| QVQLVESGGGLVQAGGSLRLSCAASGSIFPTNAMGWYRQAPGKERELVAAITSTAGSTYYADSVKGRFTISRDNAKNSVYLQMNSLKPEDTAVYYCAATYKVGVKSWYDYWGQGTQVTVSS | high polyreactivity |
| QVQLVESGGGLVQAGGSLRLSCAASGSIFPTYAMGWYRQAPGKERELVAAIRSGSNTYYADSLKGRFTISRDNAKNTDYLQMNCLKPEDTAVYYCNVGPQRKYPGRRTVPFGYWGQGTQVTVSS | low polyreactivity |
| QVQLVESGGGLVQAGGSLRLSCAASGSIFPVYAMGWYRQAPGKERELVAAISSRGGRTYYADSVKGRFTISRDNAKNTVYLQMNSLKPEDTAVYYCAAVPYPSYYDTGYDYWGQGTQVTVSS | low polyreactivity |
| QVQLVESGGGLVQAGGSLRLSCAASGSIFPVYAMGWYRQAPGKERELVATITGSGDSTYADSVKGRFTISRDNAKNTVYLQMNSLKPEDTAVYYCAATTDRAEDDDNIGGYWGQGTQVTVSS | low polyreactivity |
| QVQLVESGGGLVQAGGSLRLSCAASGSIFPVYAMGWYRQSPGKERELVADITYTTGSTYYADSVKGRFTISRDNAKNTVYLQMNSLKPEDSAVYYCAKDFGFQSDSWGQGTQVTVSS | low polyreactivity |
| QVQLVESGGGLVQAGGSLRLSCAASGSIFPVYTMGWYRQAPGKERELVADIDSGGSTNYADSVKGRFTISRDNAKNTVYLQMNSLKPEVTAVYDCAADYYYYFYSLYIDPYAFDYWGLGTQVTVSS | low polyreactivity |
| QVQLVESGGGLVQAGGSLRLSCAASGSIFPWYAMGWYRQAPGKERELVAAITISGGSTHYADSEKGRFTISRDTAKNTVYLQLKSLKPEDTAVYYCAADFLPQSYNCYDYWGQGTQVTVSS | low polyreactivity |
| QVQLVESGGGLVQAGGSLRLSCAASGSIFPWYTMGWYRQAPGKEREFVASISSSASDTYYADSVKGRFTISRDNAKNTVYLQMNSLKPEDTAVYYCAARAYYRYWHGNYRHYSFDYWGQGTQVTVSS | high polyreactivity |
| QVQLVESGGGLVQAGGSLRLSCAASGSIFPWYVMGWYRQAPGKERELVAAISWNGGITYADSVKGRFTISRDNAKNTVYLQMNSLKPEDTGVYYCAAYYITYSYIEYDYWGQGTQVSVSS | high polyreactivity |
| QVQLVESGGGLVQAGGSLRLSCAASGSIFPYNAMGWYRQAPGKERELVAAIRFGGGSTYYSDSVKGRFTISRDNAKNTVYLQMNSLKPEDTAVYYCAAQVLQSAYLPFRFGYYYWGLGTQVTVSS | low polyreactivity |

| Sequence | polyreactivity (PSR sort gate) |
| --- | --- |
| QVQLVESGGGLVQAGGSLRLSCAASGSIFPYNAMGWYRQAPGKERELVAAITQSGGSTYYADSVKGRFTISRDNAKNTVYLQMNSLQPEDTAVYYCAADDYGPEGDYWGQGTQVTVSS | low polyreactivity |
| QVQLVESGGGLVQAGGSLRLSCAASGSIFPYNDMGWYRQAPGKERELVAAISDSAGSTYYADSVKGRFTISRDNAKNTVYLQMNSLKPEDTAVYYCAADSWDSQVVSYEYWGQGTQVTVSS | low polyreactivity |
| QVQLVESGGGLVQAGGSLRLSCAASGSIFPYNVMGWYRPAPGQERELVAANTTGGRTNYADSVKGRFTISRDNAKNTVYLQMNSLKPEDTAVYYCAARYGYYDSRRWYYYSGQGTQVTVSS | high polyreactivity |
| QVQLVESGGGLVQAGGSLRLSCAASGSIFPYNVMGWYRQAPGKERELVAAISTRGGRTYYADSVKGRFTISRDNAKNTVYLQMNSLNPEDTAVYYCATAGGPYSASGYYWGQGTKVTVSS | high polyreactivity |
| QVQLVESGGGLVQAGGSLRLSCAASGSIFPYNVMGWYRQAPGKERELVAAITRRGGSTYYADSVKGRFTISRDNAKNTVYLQMNSLKPEDTAVYYCAAVPYPRGKGYDYWGQGTQVTVSS | high polyreactivity |
| QVQLVESGGGLVQAGGSLRLSCAASGSIFPYYAMGWYRPAPGKERELVAGITSGTRTNYADSVKGRFTISRDNAKNTVYLQMNSLKPEDTAVYYCAAYYRAYRRDYYWGQGTQVTVSS | high polyreactivity |
| QVQLVESGGGLVQAGGSLRLSCAASGSIFQDYTMGWYRQAPGKDRELVAAITDNGGSTYYADSVKGRFTISRDNAKNTVYLQMNSLKPEDTAVYYCAKDWDYSAPGYYLYGYWGQGTQVTVSS | low polyreactivity |
| QVQLVESGGGLVQAGGSLRLSCAASGSIFQFSAKGWYRQAPGKERELVAGINTSGGSTYYADSVKGRFTISRDNAKNTVYLQMHSLKPEDTAVYYCMARSRYDTGPQRGYDYWGQGTQVTVSS | low polyreactivity |
| QVQLVESGGGLVQAGGSLRLSCAASGSIFQFYTMGWYRQAPGKERELVAAISSTGSTNYADSVKGRFTISRDNAKNTVYLQMNSLKPEDTAVYYCAAVGTYLAGYQFDYWGQGTQVTVSS | low polyreactivity |
| QVQLVESGGGLVQAGGSLRLSCAASGSIFQGNAMGWYRQAPGKERELVAAISSRGGTTYYADSVKGRFTISRDNAKNTVYLQMNSLKPEDTAVYYCARDSGYYWYYRYGYWGQGTQVTVSS | high polyreactivity |
| QVQLVESGGGLVQAGGSLRLSCAASGSIFQGYAMGWYRQAPGKERELVAAITSSGGSTYYADSVKGRFTISRDNAKNTVYLQMNSLKPEDTAVYYCAARGYSHVASRLYYYWGQGTQVTVSS | high polyreactivity |
| QVQLVESGGGLVQAGGSLRLSCAASGSIFQGYAMGWYRQAPGKERELVAVITSRVGRTYYADSVKGRFTISRDNAKNTVYLQMNSLKPEDTAVYYCAAKLYGGWYRDFAASGMDYWGQGTQVTVSS | high polyreactivity |
| QVQLVESGGGLVQAGGSLRLSCAASGSIFQIYAMGWYRQAPGKERELVATISSGGRTTYADSVKGRFTISRDNAKNSVYLQMNSLKPEDTAVYYCAAKLEWLSHYYYWGQGTQVTVSS | low polyreactivity |
| QVQLVESGGGLVQAGGSLRLSCAASGSIFQKYAMGWYRPAPGKERELVAAISSGGGRTYYADSVKGRFTISRDNAKNTVYLQMNSLKPEDTAVYYCAARGSYTSIFDYWGQGTQVTVSS | high polyreactivity |
| QVQLVESGGGLVQAGGSLRLSCAASGSIFQLNAMGWYRQAPGKERELVAAITWSGDSTYYADSVKGRFTISRDNAKNTVSLQMNSRKPEDTAVYYCAADVLTTPPPREFEYWGQGTQVTVSS | high polyreactivity |
| QVQLVESGGGLVQAGGSLRLSCAASGSIFQPNMGWYRQAPGKERELVASITTGTTKYADSVKGRFTISRDNAKNTVYLQMNSLKPEDTAVYYCAADLQATVYLIFGYWGQGTQVTVSS | low polyreactivity |
| QVQLVESGGGLVQAGGSLRLSCAASGSIFQPYAMGWYRQAPGKEWELVAAISRGGTTYYADSVKGRFTISRDNAKNTVYLQMNSLNPEDTAVYYCAVKGYRYVTRYDYWGQGTQVTVSS | high polyreactivity |
| QVQLVESGGGLVQAGGSLRLSCAASGSIFQRNAMGWYRQAPGKERELVAAISWSGGSTYYADSVKGRFTISRDNAKNSVSLQMNSVKPEDTAVYYCARYYRPYDWGQGTQVTVSS | high polyreactivity |
| QVQLVESGGGLVQAGGSLRLSCAASGSIFQSYAKGWYRQAPGKERELVAAISRGGSTYYADSVKGRFTISRDNAKNTVYLQMNSLKPEDTAVYYCAAGSGGGKYLYYYWGQGTQVTVSS | low polyreactivity |
| QVQLVESGGGLVQAGGSLRLSCAASGSIFQSYAMGWYRQAPGKERELVAAISYSGDGTFYADSVKGRFTISRDNAKNTVYLQMNSLKPEDTAVYYCAASSTGYGGSTYYYWGQGTQVTVSS | low polyreactivity |

Reference: the nanobody polyreactivity screen of Harvey et al. (2022)
